Experimental data as given in patent US20080299638A1 (priority 2004, published 2008).

Tested on: HBV-DNA in supernatant of 2.2.15 cell culture
Experiment: HBV-DNA dot blot in supernatant of 2.2.15 cell culture
Assay type: cell-based, hepatitis B virus
Description: Extraction of HBV-DNA from 2.2.15 cells supernatant: Grow 200000 cells/ml 2.2.15 cell on 24-well plate, 1 ml per well, add drugs after 24 hours incubation, change drug solution every 4 days with the same concentration, collect supernatant from cell culture after 8 days of incubation counted from the day drugs added into the culture, precipitate with polyethylene glycol, digest with proteinase K, extract with phenol:chloroform:isopentanol, nucleic acid precipitation by absolute ethanol and so on procedures, vacuum dry, re-dissolve in TE buffer as sample.
Dot blot: place dots: take 20 μl sample (contains 25 μg DNA), denature, neutralize, serial dilute 20×SSC buffer to 1:8 dilution on nitrocellulose membrane, oven dry, pre-hybridize, hybridize, wash membrane, radioactive self exposure and so on procedures. Develop X ray film with conventional method. Scan developed film with scanner, measure density with gel-pro software, calculate suppression rate and IC50.

B1: Arginase: Pegylated recombinant human arginase (BCT-100); human arginase I with N-terminal six-histidine tag, SEQ ID NO: 3 (protein, listed as Homo sapiens)
chain: MHHHHHHMSAKSRTIGIIGAPFSKGQPRGGVEEGPTVLRKAGLLEKLKEQECDVKDYGDLPFADIPNDSPFQIVKNPRSVGKASEQLAGKVAQVKKNGRISLVLGGDHSLAIGSISGHARVHPDLGVIWVDAHTDINTPLTTTSGNLHGQPVSFLLKELKGKIPDVPGFSWVTPCISAKDIVYIGLRDVDPGEHYILKTLGIKYFSMTEVDRLGIGKVMEETLSYLLGRKKRPIHLSFDVDGLDPSFTPATGTPVVGGLTYREGLYITEEIYKTGLLSGLDIMEVNPSLGKTPEEVTRTVNTAVAITLACFGLAREGNHKPIDYLNPPK
modifications: PEGylated
**Q.** B1 was tested. Which “% suppression of HBV-DNA in cell culture supernatant” value (shortened to “% suppression of HBV-DNA”) (Arginase 1.25 μg/ml (unit as headed), batch 2, day 8) did it give?
**A.** 15.7769%

**Q.** And the “HBV-DNA in cell culture supernatant, Original Solution (IOD)” value (“HBV-DNA … (IOD)” below) (Arginase 1.25 μg/ml (unit as headed), batch 2, day 8, control 4651.67)?
**A.** 3917.78 IOD

**Q.** And the “% suppression of HBV-DNA” value (Arginase 2.5 μg/ml (unit as headed), batch 1, day 8)?
**A.** 24.9152%

**Q.** And the “HBV-DNA … (IOD)” value (Arginase 2.5 μg/ml (unit as headed), batch 1, day 8, control 2375.1)?
**A.** 1783.34 IOD

**Q.** What about the “% suppression of HBV-DNA” value (Arginase 2.5 μg/ml (unit as headed), batch 2, day 8) of the same molecule?
**A.** 11.466%

**Q.** What about the “HBV-DNA … (IOD)” value (Arginase 2.5 μg/ml (unit as headed), batch 2, day 8, control 4651.67) of the same molecule?
**A.** 4118.31 IOD

**Q.** And the “% suppression of HBV-DNA” value (Arginase 5 μg/ml (unit as headed), batch 1, day 8)?
**A.** 11.9877%

**Q.** What about the “HBV-DNA … (IOD)” value (Arginase 5 μg/ml (unit as headed), batch 1, day 8, control 2375.1) of the same molecule?
**A.** 2090.38 IOD

**Q.** And the “% suppression of HBV-DNA” value (Arginase 5 μg/ml (unit as headed), batch 2, day 8)?
**A.** 43.8243%

**Q.** And the “HBV-DNA … (IOD)” value (Arginase 5 μg/ml (unit as headed), batch 2, day 8, control 4651.67)?
**A.** 2613.11 IOD

**Q.** And the “% suppression of HBV-DNA” value (Arginase 10 μg/ml (unit as headed), batch 1, day 8)?
**A.** 29.2409%

**Q.** And the “HBV-DNA … (IOD)” value (Arginase 10 μg/ml (unit as headed), batch 1, day 8, control 2375.1)?
**A.** 1680.6 IOD

**Q.** And the “% suppression of HBV-DNA” value (Arginase 10 μg/ml (unit as headed), batch 2, day 8)?
**A.** 38.0549%

**Q.** And the “HBV-DNA … (IOD)” value (Arginase 10 μg/ml (unit as headed), batch 2, day 8, control 4651.67)?
**A.** 2881.48 IOD

**Q.** What about the “% suppression of HBV-DNA” value (Arginase 20 μg/ml (unit as headed), batch 1, day 8) of the same molecule?
**A.** 30.8113%

**Q.** And the “HBV-DNA … (IOD)” value (Arginase 20 μg/ml (unit as headed), batch 1, day 8, control 2375.1)?
**A.** 1643.3 IOD

**Q.** What about the “% suppression of HBV-DNA” value (Arginase 20 μg/ml (unit as headed), batch 2, day 8) of the same molecule?
**A.** 47.7577%

**Q.** What about the “HBV-DNA … (IOD)” value (Arginase 20 μg/ml (unit as headed), batch 2, day 8, control 4651.67) of the same molecule?
**A.** 2430.14 IOD

**Q.** And the “IC50, HBV-DNA dot blot in supernatant” value (batch 1, 8 days of incubation)?
**A.** 16.04 IU/ml

**Q.** What about the “IC50, HBV-DNA dot blot in supernatant” value (batch 2, 8 days of incubation) of the same molecule?
**A.** 10.31 IU/ml

**Q.** And the “IC50, HBV-DNA dot blot in supernatant” value (two batches average, 8 days of incubation)?
**A.** 13.18 IU/ml

**Q.** And the “IC50, HBV-DNA dot blot in supernatant” value (two batches average, 8 days of incubation, listed as arginase)?
**A.** 13.18±4.05 IU/ml

**Q.** What about the “IC50, HBV-DNA dot blot in supernatant” value (two batches average, 8 days of incubation, listed as pegylated recombinant arginase) of the same molecule?
**A.** 13.18±0.45 IU/ml
